The substances below were run on peptide library, one residue held at a place counted from the S/T acceptor (assay: relative phosphorylation of the sub-library (ratio to the mean residue at this position); human; higher = residue favoured). Details: M fixed; at -1.
Summary of the method: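 In 384-well plates, purified recombinant kinases (human or orthologue constructs) were incubated for 90 min under kinase-specific conditions with 50 μM biotinylated degenerate peptide sub-libraries and 50 μM ATP spiked with γ-32P-ATP. Each sub-library fixed a single residue at one position around a central Ser/Thr. Relative sub-library phosphorylation, measured by phosphorimaging and densitometry of streptavidin membrane spots, is given as a ratio to the mean residue at that position.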
Chain of MAP4K5, construct: Full length (Q9Y4K4 whole entry, looked up): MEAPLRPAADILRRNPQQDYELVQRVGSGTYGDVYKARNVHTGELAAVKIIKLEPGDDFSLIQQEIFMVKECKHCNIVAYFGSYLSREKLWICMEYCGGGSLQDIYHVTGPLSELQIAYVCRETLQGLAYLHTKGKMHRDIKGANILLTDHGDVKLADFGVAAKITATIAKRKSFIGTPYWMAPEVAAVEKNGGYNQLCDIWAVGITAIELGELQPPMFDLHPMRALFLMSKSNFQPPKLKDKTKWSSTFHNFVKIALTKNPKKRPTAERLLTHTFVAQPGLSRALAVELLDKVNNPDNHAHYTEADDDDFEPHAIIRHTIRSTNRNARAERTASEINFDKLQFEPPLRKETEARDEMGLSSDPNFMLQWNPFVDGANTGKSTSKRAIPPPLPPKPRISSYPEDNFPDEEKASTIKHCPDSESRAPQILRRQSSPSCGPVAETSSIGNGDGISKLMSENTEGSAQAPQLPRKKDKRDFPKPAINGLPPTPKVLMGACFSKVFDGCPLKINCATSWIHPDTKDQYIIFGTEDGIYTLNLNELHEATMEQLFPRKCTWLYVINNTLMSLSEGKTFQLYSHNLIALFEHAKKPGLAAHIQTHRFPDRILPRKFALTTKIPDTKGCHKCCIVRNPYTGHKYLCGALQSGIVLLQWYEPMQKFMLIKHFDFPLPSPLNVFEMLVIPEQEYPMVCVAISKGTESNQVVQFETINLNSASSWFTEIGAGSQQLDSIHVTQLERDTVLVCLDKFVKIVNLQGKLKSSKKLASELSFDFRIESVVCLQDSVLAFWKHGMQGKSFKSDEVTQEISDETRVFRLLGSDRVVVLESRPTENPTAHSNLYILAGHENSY
Chain of NEK6, construct: Full length (Q9HC98 whole entry, looked up): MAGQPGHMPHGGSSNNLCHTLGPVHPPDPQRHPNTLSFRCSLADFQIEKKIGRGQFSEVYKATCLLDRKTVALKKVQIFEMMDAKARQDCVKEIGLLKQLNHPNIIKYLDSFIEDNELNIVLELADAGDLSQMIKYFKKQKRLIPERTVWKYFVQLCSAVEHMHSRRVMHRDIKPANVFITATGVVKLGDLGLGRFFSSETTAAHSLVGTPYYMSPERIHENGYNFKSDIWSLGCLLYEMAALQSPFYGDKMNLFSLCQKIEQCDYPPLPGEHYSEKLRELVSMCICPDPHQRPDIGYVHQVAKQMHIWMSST
Chain of CDK10, construct: Full length (Q15131 whole entry, looked up): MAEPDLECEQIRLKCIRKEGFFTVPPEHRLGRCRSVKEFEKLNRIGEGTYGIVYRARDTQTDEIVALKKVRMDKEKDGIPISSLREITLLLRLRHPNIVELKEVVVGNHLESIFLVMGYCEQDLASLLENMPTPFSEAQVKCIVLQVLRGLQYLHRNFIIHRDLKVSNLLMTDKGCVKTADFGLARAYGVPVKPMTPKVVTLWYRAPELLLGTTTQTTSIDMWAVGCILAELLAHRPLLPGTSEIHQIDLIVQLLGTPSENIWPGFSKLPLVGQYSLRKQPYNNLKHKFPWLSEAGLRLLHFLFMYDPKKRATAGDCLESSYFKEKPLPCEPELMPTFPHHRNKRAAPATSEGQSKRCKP
Chain of SIK3, construct: aa1-307 (Q9Y2K2 1-307, looked up): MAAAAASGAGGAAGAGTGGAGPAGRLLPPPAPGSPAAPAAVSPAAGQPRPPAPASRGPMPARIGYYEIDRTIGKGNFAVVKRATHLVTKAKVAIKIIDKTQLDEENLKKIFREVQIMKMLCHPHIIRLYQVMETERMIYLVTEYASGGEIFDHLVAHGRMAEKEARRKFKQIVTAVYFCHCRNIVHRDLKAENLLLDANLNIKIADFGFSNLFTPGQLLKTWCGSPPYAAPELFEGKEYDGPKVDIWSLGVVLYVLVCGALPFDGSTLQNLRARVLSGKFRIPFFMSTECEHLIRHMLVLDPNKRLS
Chain of SLK, construct: Full length (Q9H2G2 whole entry, looked up): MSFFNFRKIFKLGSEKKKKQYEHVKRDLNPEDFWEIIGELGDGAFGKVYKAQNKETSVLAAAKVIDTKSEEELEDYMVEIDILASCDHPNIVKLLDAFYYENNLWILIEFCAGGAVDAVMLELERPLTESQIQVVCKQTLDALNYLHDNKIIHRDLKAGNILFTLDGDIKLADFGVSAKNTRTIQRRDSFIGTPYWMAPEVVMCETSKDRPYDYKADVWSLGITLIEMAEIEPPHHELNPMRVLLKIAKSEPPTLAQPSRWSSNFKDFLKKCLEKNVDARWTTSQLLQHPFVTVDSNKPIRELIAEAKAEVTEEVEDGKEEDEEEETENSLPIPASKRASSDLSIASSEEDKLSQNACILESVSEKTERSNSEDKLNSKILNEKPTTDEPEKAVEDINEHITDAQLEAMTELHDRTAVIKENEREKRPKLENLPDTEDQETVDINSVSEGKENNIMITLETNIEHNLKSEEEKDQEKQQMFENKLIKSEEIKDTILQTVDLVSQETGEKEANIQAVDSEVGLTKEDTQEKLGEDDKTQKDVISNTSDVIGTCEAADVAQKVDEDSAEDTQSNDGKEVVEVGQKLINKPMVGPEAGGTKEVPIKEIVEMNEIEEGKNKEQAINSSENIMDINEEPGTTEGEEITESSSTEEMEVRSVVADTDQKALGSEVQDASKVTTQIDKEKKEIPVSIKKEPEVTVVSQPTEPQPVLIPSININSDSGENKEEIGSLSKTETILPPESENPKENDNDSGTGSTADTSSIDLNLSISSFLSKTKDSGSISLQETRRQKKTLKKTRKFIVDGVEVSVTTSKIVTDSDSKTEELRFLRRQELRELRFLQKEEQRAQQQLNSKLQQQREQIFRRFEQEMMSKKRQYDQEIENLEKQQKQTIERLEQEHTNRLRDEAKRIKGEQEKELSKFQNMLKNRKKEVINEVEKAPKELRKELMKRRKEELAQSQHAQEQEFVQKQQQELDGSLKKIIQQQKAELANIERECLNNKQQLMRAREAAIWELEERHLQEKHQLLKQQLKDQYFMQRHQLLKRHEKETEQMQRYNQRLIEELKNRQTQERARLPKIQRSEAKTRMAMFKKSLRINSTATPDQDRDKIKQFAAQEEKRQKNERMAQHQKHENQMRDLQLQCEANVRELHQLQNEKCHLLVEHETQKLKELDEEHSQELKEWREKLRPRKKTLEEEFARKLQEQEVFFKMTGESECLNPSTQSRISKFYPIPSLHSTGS
Chain of TNIK, construct: aa1-314 (Q9UKE5 1-314, looked up): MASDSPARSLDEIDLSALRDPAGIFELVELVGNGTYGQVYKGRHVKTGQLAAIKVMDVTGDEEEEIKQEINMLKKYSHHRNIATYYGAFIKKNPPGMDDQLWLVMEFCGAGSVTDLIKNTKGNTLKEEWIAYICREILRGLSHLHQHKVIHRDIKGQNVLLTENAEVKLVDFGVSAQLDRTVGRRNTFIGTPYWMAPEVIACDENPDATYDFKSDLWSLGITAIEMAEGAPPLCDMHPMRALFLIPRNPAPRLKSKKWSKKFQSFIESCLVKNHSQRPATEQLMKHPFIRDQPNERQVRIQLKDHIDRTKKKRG
Chain of IKBKE, construct: Full length (Q14164 whole entry, looked up): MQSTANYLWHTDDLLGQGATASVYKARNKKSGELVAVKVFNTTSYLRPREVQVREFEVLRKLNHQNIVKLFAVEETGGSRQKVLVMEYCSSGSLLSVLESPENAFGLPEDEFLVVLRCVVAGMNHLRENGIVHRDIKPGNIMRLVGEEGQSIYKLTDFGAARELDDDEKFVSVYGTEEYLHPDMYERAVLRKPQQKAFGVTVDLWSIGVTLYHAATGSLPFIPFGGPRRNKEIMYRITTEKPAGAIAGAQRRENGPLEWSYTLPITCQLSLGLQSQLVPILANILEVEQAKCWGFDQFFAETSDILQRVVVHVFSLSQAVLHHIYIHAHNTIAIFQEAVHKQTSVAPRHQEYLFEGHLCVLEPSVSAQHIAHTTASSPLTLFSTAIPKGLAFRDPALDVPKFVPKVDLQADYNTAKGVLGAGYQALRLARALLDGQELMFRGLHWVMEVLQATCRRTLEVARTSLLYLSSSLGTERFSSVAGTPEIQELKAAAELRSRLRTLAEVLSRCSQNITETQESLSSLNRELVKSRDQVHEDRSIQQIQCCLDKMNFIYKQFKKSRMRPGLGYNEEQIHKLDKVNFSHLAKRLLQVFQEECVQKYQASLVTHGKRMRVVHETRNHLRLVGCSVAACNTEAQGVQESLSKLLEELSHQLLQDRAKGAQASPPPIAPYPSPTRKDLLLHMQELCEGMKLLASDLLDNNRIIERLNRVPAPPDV
With “SIK3, construct: aa1-307 (from UniProt Q9Y2K2)” the relative phosphorylation was 0.781. Work on “TNIK, construct: aa1-314 (from UniProt Q9UKE5)” yielded a relative phosphorylation of 1.06. “SLK, construct: Full length (from UniProt Q9H2G2)” was tested, and the relative phosphorylation was 0.904. With “CDK10, construct: Full length (from UniProt Q15131)” the relative phosphorylation was 1.01.

Same assay, conditions: M fixed; at -2
“PKN2, construct: aa501-984 (from UniProt Q16513)” was tested, and the relative phosphorylation was 0.852. Substance “IKBKE, construct: Full length (from UniProt Q14164)” has a relative phosphorylation of 1.65. With “MAP4K5, construct: Full length (from UniProt Q9Y4K4)” the relative phosphorylation was 0.773. Work on “NEK6, construct: Full length (from UniProt Q9HC98)” yielded a relative phosphorylation of 0.789. In the case of “SIK3, construct: aa1-307 (from UniProt Q9Y2K2)”, the relative phosphorylation is reported as 0.591. Substance “TNIK, construct: aa1-314 (from UniProt Q9UKE5)” has a relative phosphorylation of 0.79. “SLK, construct: Full length (from UniProt Q9H2G2)” gave a relative phosphorylation of 0.568. With “CDK10, construct: Full length (from UniProt Q15131)” the relative phosphorylation was 1.06.

Same assay, conditions: M fixed; at -3
“PKN2, construct: aa501-984 (from UniProt Q16513)” showed a relative phosphorylation of 0.643. Work on “IKBKE, construct: Full length (from UniProt Q14164)” yielded a relative phosphorylation of 1.07. Substance “MAP4K5, construct: Full length (from UniProt Q9Y4K4)” has a relative phosphorylation of 0.697. Substance “NEK6, construct: Full length (from UniProt Q9HC98)” has a relative phosphorylation of 1.2. For “SIK3, construct: aa1-307 (from UniProt Q9Y2K2)”, the relative phosphorylation was 0.649. Work on “TNIK, construct: aa1-314 (from UniProt Q9UKE5)” yielded a relative phosphorylation of 0.814. Substance “SLK, construct: Full length (from UniProt Q9H2G2)” has a relative phosphorylation of 0.565. Substance “CDK10, construct: Full length (from UniProt Q15131)” has a relative phosphorylation of 0.776.

Same assay, conditions: M fixed; at -4
In the case of “PKN2, construct: aa501-984 (from UniProt Q16513)”, the relative phosphorylation is reported as 0.928. With “IKBKE, construct: Full length (from UniProt Q14164)” the relative phosphorylation was 0.928. “MAP4K5, construct: Full length (from UniProt Q9Y4K4)” was tested, and the relative phosphorylation was 0.853. With “NEK6, construct: Full length (from UniProt Q9HC98)” the relative phosphorylation was 0.71. “SIK3, construct: aa1-307 (from UniProt Q9Y2K2)” showed a relative phosphorylation of 0.991. “TNIK, construct: aa1-314 (from UniProt Q9UKE5)” showed a relative phosphorylation of 0.866. In the case of “SLK, construct: Full length (from UniProt Q9H2G2)”, the relative phosphorylation is reported as 0.747. “CDK10, construct: Full length (from UniProt Q15131)” was tested, and the relative phosphorylation was 0.831.

Same assay, conditions: M fixed; at -5
In the case of “PKN2, construct: aa501-984 (from UniProt Q16513)”, the relative phosphorylation is reported as 0.723. In the case of “IKBKE, construct: Full length (from UniProt Q14164)”, the relative phosphorylation is reported as 0.808. “MAP4K5, construct: Full length (from UniProt Q9Y4K4)” showed a relative phosphorylation of 0.819. Substance “NEK6, construct: Full length (from UniProt Q9HC98)” has a relative phosphorylation of 0.753. Substance “SIK3, construct: aa1-307 (from UniProt Q9Y2K2)” has a relative phosphorylation of 1.2. “TNIK, construct: aa1-314 (from UniProt Q9UKE5)” gave a relative phosphorylation of 0.793. “SLK, construct: Full length (from UniProt Q9H2G2)” showed a relative phosphorylation of 0.691. With “CDK10, construct: Full length (from UniProt Q15131)” the relative phosphorylation was 0.757.

Same assay, conditions: N fixed; at +1
“PKN2, construct: aa501-984 (from UniProt Q16513)” showed a relative phosphorylation of 0.75. “IKBKE, construct: Full length (from UniProt Q14164)” showed a relative phosphorylation of 0.323. In the case of “MAP4K5, construct: Full length (from UniProt Q9Y4K4)”, the relative phosphorylation is reported as 0.506. In the case of “NEK6, construct: Full length (from UniProt Q9HC98)”, the relative phosphorylation is reported as 1.2. In the case of “SIK3, construct: aa1-307 (from UniProt Q9Y2K2)”, the relative phosphorylation is reported as 1.29. “TNIK, construct: aa1-314 (from UniProt Q9UKE5)” gave a relative phosphorylation of 0.843. “SLK, construct: Full length (from UniProt Q9H2G2)” showed a relative phosphorylation of 0.877. “CDK10, construct: Full length (from UniProt Q15131)” was tested, and the relative phosphorylation was 0.247.

Same assay, conditions: N fixed; at +2
Substance “PKN2, construct: aa501-984 (from UniProt Q16513)” has a relative phosphorylation of 1.02. For “IKBKE, construct: Full length (from UniProt Q14164)”, the relative phosphorylation was 1.04. With “MAP4K5, construct: Full length (from UniProt Q9Y4K4)” the relative phosphorylation was 1.02. “NEK6, construct: Full length (from UniProt Q9HC98)” gave a relative phosphorylation of 1.87. With “SIK3, construct: aa1-307 (from UniProt Q9Y2K2)” the relative phosphorylation was 1.4. Work on “TNIK, construct: aa1-314 (from UniProt Q9UKE5)” yielded a relative phosphorylation of 0.992. Substance “SLK, construct: Full length (from UniProt Q9H2G2)” has a relative phosphorylation of 1.22. Substance “CDK10, construct: Full length (from UniProt Q15131)” has a relative phosphorylation of 0.864.

Same assay, conditions: N fixed; at +3
With “PKN2, construct: aa501-984 (from UniProt Q16513)” the relative phosphorylation was 0.861. “IKBKE, construct: Full length (from UniProt Q14164)” gave a relative phosphorylation of 0.9. Work on “MAP4K5, construct: Full length (from UniProt Q9Y4K4)” yielded a relative phosphorylation of 0.973. “NEK6, construct: Full length (from UniProt Q9HC98)” gave a relative phosphorylation of 1.24. “SIK3, construct: aa1-307 (from UniProt Q9Y2K2)” was tested, and the relative phosphorylation was 3.64. In the case of “TNIK, construct: aa1-314 (from UniProt Q9UKE5)”, the relative phosphorylation is reported as 0.871. Substance “SLK, construct: Full length (from UniProt Q9H2G2)” has a relative phosphorylation of 1.27. For “CDK10, construct: Full length (from UniProt Q15131)”, the relative phosphorylation was 0.852.

Same assay, conditions: N fixed; at +4
“PKN2, construct: aa501-984 (from UniProt Q16513)” was tested, and the relative phosphorylation was 0.994. For “IKBKE, construct: Full length (from UniProt Q14164)”, the relative phosphorylation was 0.854. With “MAP4K5, construct: Full length (from UniProt Q9Y4K4)” the relative phosphorylation was 1.04. “NEK6, construct: Full length (from UniProt Q9HC98)” showed a relative phosphorylation of 0.917. “SIK3, construct: aa1-307 (from UniProt Q9Y2K2)” was tested, and the relative phosphorylation was 0.597. In the case of “TNIK, construct: aa1-314 (from UniProt Q9UKE5)”, the relative phosphorylation is reported as 1.02. In the case of “SLK, construct: Full length (from UniProt Q9H2G2)”, the relative phosphorylation is reported as 1.04. Work on “CDK10, construct: Full length (from UniProt Q15131)” yielded a relative phosphorylation of 0.868.

Same assay, conditions: N fixed; at -1
With “PKN2, construct: aa501-984 (from UniProt Q16513)” the relative phosphorylation was 1.37. Work on “IKBKE, construct: Full length (from UniProt Q14164)” yielded a relative phosphorylation of 0.916. For “MAP4K5, construct: Full length (from UniProt Q9Y4K4)”, the relative phosphorylation was 1.43. Work on “NEK6, construct: Full length (from UniProt Q9HC98)” yielded a relative phosphorylation of 1.38. “SIK3, construct: aa1-307 (from UniProt Q9Y2K2)” showed a relative phosphorylation of 1.25. Work on “TNIK, construct: aa1-314 (from UniProt Q9UKE5)” yielded a relative phosphorylation of 1.33. “SLK, construct: Full length (from UniProt Q9H2G2)” gave a relative phosphorylation of 1.59. For “CDK10, construct: Full length (from UniProt Q15131)”, the relative phosphorylation was 0.786.

Same assay, conditions: N fixed; at -2
In the case of “PKN2, construct: aa501-984 (from UniProt Q16513)”, the relative phosphorylation is reported as 1.13. Substance “IKBKE, construct: Full length (from UniProt Q14164)” has a relative phosphorylation of 0.916. “MAP4K5, construct: Full length (from UniProt Q9Y4K4)” was tested, and the relative phosphorylation was 1.18. For “NEK6, construct: Full length (from UniProt Q9HC98)”, the relative phosphorylation was 1.6. Substance “SIK3, construct: aa1-307 (from UniProt Q9Y2K2)” has a relative phosphorylation of 0.65. Substance “TNIK, construct: aa1-314 (from UniProt Q9UKE5)” has a relative phosphorylation of 1.19. For “SLK, construct: Full length (from UniProt Q9H2G2)”, the relative phosphorylation was 0.737. Work on “CDK10, construct: Full length (from UniProt Q15131)” yielded a relative phosphorylation of 0.753.

Same assay, conditions: N fixed; at -3
Work on “PKN2, construct: aa501-984 (from UniProt Q16513)” yielded a relative phosphorylation of 0.736.

From the supplement of paper PMC9876800
